Results reported in patent publication EP4650366A1.

How the values were obtained:
[1] = target: Human GARP-TGFβ1 complex (human) (UniProt Q14392); experiment: SPR (Biacore T200), method of Example 4
[2] = target: Human GARP-TGFβ1 complex (human) (UniProt Q14392); experiment: SPR (Biacore T200), antibody on Protein A chip, antigen in flow

Chain of Human GARP-TGFβ1 complex (human) (Q14392 other isoform, or with tags, fused parts or gaps limits assumed, chain 1 of 2): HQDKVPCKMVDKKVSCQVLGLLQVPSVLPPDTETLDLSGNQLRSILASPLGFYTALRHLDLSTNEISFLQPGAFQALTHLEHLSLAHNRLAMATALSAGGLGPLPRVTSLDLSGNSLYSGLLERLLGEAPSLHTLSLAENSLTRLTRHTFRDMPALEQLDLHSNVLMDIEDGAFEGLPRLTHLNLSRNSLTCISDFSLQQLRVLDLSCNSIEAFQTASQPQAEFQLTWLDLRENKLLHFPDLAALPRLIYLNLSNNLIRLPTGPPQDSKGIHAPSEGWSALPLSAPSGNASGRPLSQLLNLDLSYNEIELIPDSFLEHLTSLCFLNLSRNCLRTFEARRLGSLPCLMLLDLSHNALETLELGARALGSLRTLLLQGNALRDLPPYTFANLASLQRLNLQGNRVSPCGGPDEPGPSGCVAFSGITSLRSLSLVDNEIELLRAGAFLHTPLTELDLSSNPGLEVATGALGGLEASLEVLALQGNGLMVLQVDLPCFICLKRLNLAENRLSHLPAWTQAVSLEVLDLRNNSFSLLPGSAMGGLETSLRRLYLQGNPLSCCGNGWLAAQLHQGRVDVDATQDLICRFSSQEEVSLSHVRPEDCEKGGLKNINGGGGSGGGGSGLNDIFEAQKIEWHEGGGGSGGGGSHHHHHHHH
Chain of Human GARP-TGFβ1 complex (human) (chain, as listed by the source limits assumed, chain 2 of 2): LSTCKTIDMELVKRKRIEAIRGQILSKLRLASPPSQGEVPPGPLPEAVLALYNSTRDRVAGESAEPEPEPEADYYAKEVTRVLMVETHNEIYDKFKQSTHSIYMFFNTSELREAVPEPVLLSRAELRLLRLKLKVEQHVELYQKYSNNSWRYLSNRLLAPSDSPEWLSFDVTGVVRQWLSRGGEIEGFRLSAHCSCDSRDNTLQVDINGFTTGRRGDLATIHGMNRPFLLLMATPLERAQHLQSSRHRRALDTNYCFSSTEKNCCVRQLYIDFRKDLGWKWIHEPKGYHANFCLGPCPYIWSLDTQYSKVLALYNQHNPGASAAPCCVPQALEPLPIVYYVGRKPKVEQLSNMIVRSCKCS

Kd [1]: 0.98 nM
koff [1]: 0.000151 s⁻¹
kon [1]: 154000 M⁻¹ s⁻¹
Kd [2]: 4.39 nM
koff [2]: 0.00283 s⁻¹
kon [2]: 645000 M⁻¹ s⁻¹
Substance: Abbv-151 (antibody)
